Results taken from US20240425837A1 (Novo Nordisk, published 2024).
No end group written: not given here.

Assays:
Test in all cases: ELISA, biotinylated 12-mer peptide on streptavidin, 2 ug/mL FLAG-tagged VHH, anti-FLAG-HRP
[1] = molecular target: T1, FX activation peptide 12-mer SVAQATSSSGEA (SEQ ID NO:693) (human)
T1 peptide: SVAQATSSSGEA-biotin
Experimental: (§1) To determine whether the binding epitope of the anti-FX VHH polypeptide designated “cmpd #1” are located inside the activation peptide (AP) of human FX (SEQ ID NO:2), an ELISA assay was setup. 41 unique 12-mer peptide fragments spanning the 52 residues of the activation peptide with one amino acid spacing were immobilized in microtiter plate wells followed by incubation with the VHH polypeptide to be tested, and detection of bound ligand was performed by addition of a secondary HRP-labelled antibody.
(§2) The peptides were C-terminally conjugated to biotin and 50 μL of 1 μg/mL peptide solution was used for immobilization in discrete wells of the microtiter plate which was pre-coated with 1 μg/mL streptavidin. Each well was washed with washing buffer (10 mM Tris, 150 mM NaCl, 2.5 mM CaCl₂, 0.05% Tween 20, pH 8.60) followed by addition of 50 μL of 2 μg/mL FLAG-tagged anti-FX VHH polypeptide or IgG antibody to be tested. After 1 hour non-bound VHH polypeptide was washed off using washing buffer.
(§3) Bound anti-FX activation peptide ligand was detected by first binding a HRP-labelled secondary antibody (for FLAG-tagged VHH polypeptide: Anti-FLAG mAb M2-Peroxidase (HRP) (Sigma Aldrich, US) for 1 hour, and then adding 100 μL TMB-1 ELISA substrate (Kem-En-Tec Diagnostics, Denmark).

[2] = molecular target: T2, FX activation peptide 12-mer QATSSSGEAPDS (SEQ ID NO:696) (human)
T2 peptide: QATSSSGEAPDS-biotin
Experimental: as §1, §2, §3

[3] = molecular target: T3, FX activation peptide 12-mer ATSSSGEAPDSI (SEQ ID NO:697) (human)
T3 peptide: ATSSSGEAPDSI-biotin
Experimental: as §1, §2, §3

[4] = molecular target: T4, FX activation peptide 12-mer TSSSGEAPDSIT (SEQ ID NO:698) (human)
T4 peptide: TSSSGEAPDSIT-biotin
Experimental: as §1, §2, §3

[5] = molecular target: T5, FX activation peptide 12-mer SGEAPDSITWKP (SEQ ID NO:701) (human)
T5 peptide: SGEAPDSITWKP-biotin
Experimental: as §1, §2, §3

[6] = molecular target: T6, FX activation peptide 12-mer GEAPDSITWKPY (SEQ ID NO:702) (human)
T6 peptide: GEAPDSITWKPY-biotin
Experimental: as §1, §2, §3

[7] = molecular target: T7, FX activation peptide 12-mer EAPDSITWKPYD (SEQ ID NO:703) (human)
T7 peptide: EAPDSITWKPYD-biotin
Experimental: as §1, §2, §3

[8] = molecular target: T8, FX activation peptide 12-mer DSITWKPYDAAD (SEQ ID NO:706) (human)
T8 peptide: DSITWKPYDAAD-biotin
Experimental: as §1, §2, §3

[9] = molecular target: T9, FX activation peptide 12-mer DLDPTENPFDLL (SEQ ID NO:717) (human)
T9 peptide: DLDPTENPFDLL-biotin
Experimental: as §1, §2, §3

[10] = molecular target: T10, FX activation peptide 12-mer PTENPFDLLDFN (SEQ ID NO:720) (human)
T10 peptide: PTENPFDLLDFN-biotin
Experimental: as §1, §2, §3

[11] = molecular target: T11, FX activation peptide 12-mer TENPFDLLDFNQ (SEQ ID NO:721) (human)
T11 peptide: TENPFDLLDFNQ-biotin
Experimental: as §1, §2, §3

[12] = molecular target: T12, FX activation peptide 12-mer ENPFDLLDFNQT (SEQ ID NO:722) (human)
T12 peptide: ENPFDLLDFNQT-biotin
Experimental: as §1, §2, §3

[13] = molecular target: T13, FX activation peptide 12-mer NPFDLLDFNQTQ (SEQ ID NO:723) (human)
T13 peptide: NPFDLLDFNQTQ-biotin
Experimental: as §1, §2, §3

[14] = molecular target: T14, FX activation peptide 12-mer DLLDFNQTQPER (SEQ ID NO:726) (human)
T14 peptide: DLLDFNQTQPER-biotin
Experimental: as §1, §2, §3

[15] = molecular target: T15, FX activation peptide 12-mer LDFNQTQPERGD (SEQ ID NO:728) (human)
T15 peptide: LDFNQTQPERGD-biotin
Experimental: as §1, §2, §3

[16] = molecular target: T16, FX activation peptide 12-mer DFNQTQPERGDN (SEQ ID NO:729) (human)
T16 peptide: DFNQTQPERGDN-biotin
Experimental: as §1, §2, §3

[17] = molecular target: T17, FX activation peptide 12-mer NQTQPERGDNNL (SEQ ID NO:731) (human)
T17 peptide: NQTQPERGDNNL-biotin
Experimental: as §1, §2, §3

[18] = molecular target: T18, FX activation peptide 12-mer TQPERGDNNLTR (SEQ ID NO:733) (human)
T18 peptide: TQPERGDNNLTR-biotin
Experimental: as §1, §2, §3

ELISA signal normalized relative to the background signal [1]: 0.96 fold of background
ELISA signal normalized relative to the background signal [2]: 0.96 fold of background
ELISA signal normalized relative to the background signal [3]: 0.98 fold of background
ELISA signal normalized relative to the background signal [4]: 0.77 fold of background
ELISA signal normalized relative to the background signal [5]: 0.88 fold of background
ELISA signal normalized relative to the background signal [6]: 0.93 fold of background
ELISA signal normalized relative to the background signal [7]: 0.97 fold of background
ELISA signal normalized relative to the background signal [8]: 1.08 fold of background
ELISA signal normalized relative to the background signal [9]: 1 fold of background
ELISA signal normalized relative to the background signal [10]: 4.58 fold of background
ELISA signal normalized relative to the background signal [11]: 4.84 fold of background
ELISA signal normalized relative to the background signal [12]: 4 fold of background
ELISA signal normalized relative to the background signal [13]: 3.13 fold of background
ELISA signal normalized relative to the background signal [14]: 3.08 fold of background
ELISA signal normalized relative to the background signal [15]: 0.97 fold of background
ELISA signal normalized relative to the background signal [16]: 0.94 fold of background
ELISA signal normalized relative to the background signal [17]: 0.92 fold of background
ELISA signal normalized relative to the background signal [18]: 1.05 fold of background
B1: Cmpd #1 (monovalent anti-FX VHH polypeptide, VHH-1.1) (VHH)
VHH: EVQLVESGGGLVQPGGSLRLSCAASGSIGAFDAMGWYRQAPGKQRELVAGIMVSRGNTNYTDSVKGRFTISRDNAKNTVYLQMNSLKPEDTAVYYCKAVKRPGPGYLEVWGQGTLVTVSS
notes: no protractor; FLAG-tagged in the peptide ELISA
